Results on six molecules are retold here after publication PMC9411207, “Designed peptides as nanomolar cross-amyloid inhibitors acting via supramolecular nanofiber co-assembly” (Nature Communications, 2022).

Square brackets hold non-standard residues; d marks the D form. Ends that are not written are not given here. NMeF = CN[C@@H](Cc1ccccc1)C(=O)O; NMeL = CN[C@@H](CC(C)C)C(=O)O; NMeV = CN[C@H](C(=O)O)C(C)C; Nle = CCCC[C@H](N)C(=O)O

The stoichiometry N is the number of molecules, sites or subunits per partner or assembly.

For data set [1], the target named is T1, N-terminal fluorescein-labeled IAPP (human, UniProt P10997 34-70, fluorescein on the N-terminus; subjected to air-oxidation).
T1 construct: also called Fluos-IAPP; source: synthetic peptide (Fmoc-SPPS, air-oxidation, RP-HPLC purified)
T1 chain (looked up): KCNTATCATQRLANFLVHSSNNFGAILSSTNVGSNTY
Kind of data set: other fluorescence titration; N-terminal fluorescently-labeled peptide (5 nM) titrated with unlabeled peptide; 10 mM sodium phosphate buffer, pH 7.4 (1% HFIP); measured within 2–5 min after preparation; apparent KDs from 1/1 binding models. The note with it: both partners purified.

For data set [2], the target named is T2, Fluorescein-isothiocyanate-β-Ala-labeled Aβ42 (UniProt P05067 672-713, fluorescein-isothiocyanate-β-Ala on the N-terminus).
T2 construct: amyloid-β peptide Aβ42, the 42-residue cut product of the amyloid precursor protein; also called FITC-Aβ42; N-terminal FITC-labeled Aβ42; source: bought: Bachem
The description is as above. The note with it: both partners purified.

Data set [3] concerns the molecule itself. Kind of data set: SEC; Superdex 75 10/300 GL, 50 mM sodium phosphate pH 7.4, 100 mM NaCl; IAPP (16.5 µM) alone or with Nle3-VF (1/2) incubated in ThT buffer, 0 h and 96 h.

T2 sequence (P05067 672-713): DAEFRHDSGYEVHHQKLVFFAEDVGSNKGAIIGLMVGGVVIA

B1: L3-LF (peptide)
chain: QK[NMeL]V[NMeF]FAEDLLLNKGAIIGL[Nle]VGGVV
Take B1: the Kd in data set [1] was determined as 143 nM; in data set [2] it was 2.6 nM.

B2: F3-VF (peptide)
chain: QKL[NMeV]F[NMeF]AEDFFFNKGAIIGL[Nle]VGGVV
As to B2, the figures for the Kd in data set [1] and in data set [2] were 15 nM and 161 nM, respectively.

B3: F3-LF (peptide)
chain: QK[NMeL]V[NMeF]FAEDFFFNKGAIIGL[Nle]VGGVV
Take B3: the Kd was determined as 37.6 nM in data set [1] and 431 nM in data set [2].

B4: Nle3-LF (peptide)
chain: QK[NMeL]V[NMeF]FAED[Nle][Nle][Nle]NKGAIIGL[Nle]VGGVV
As for B4, the Kd is 55.4 nM in data set [1] and 11.1 nM in data set [2].

B5: Nle3-VF (peptide)
chain: QKL[NMeV]F[NMeF]AED[Nle][Nle][Nle]NKGAIIGL[Nle]VGGVV
With B5, the “stoichiometry N” value in data set [3] was 2. Moreover, the Kd in data set [1] stood at 69.5 nM; in data set [2] it was 14.5 nM.

B6: L3-VF (peptide)
chain: QKL[NMeV]F[NMeF]AEDLLLNKGAIIGL[Nle]VGGVV
B6: the Kd in data set [1] was determined as 77.3 nM; in data set [2] it was 38 nM.
